From PMC10786891, “Massively parallel profiling of RNA-targeting CRISPR-Cas13d”

Biological target: T1, EsCas13d, nuclease-dead (Eubacterium siraeum, UniProt B0MS50, R295A;H300A;R849A;H854A)
T1 sequence: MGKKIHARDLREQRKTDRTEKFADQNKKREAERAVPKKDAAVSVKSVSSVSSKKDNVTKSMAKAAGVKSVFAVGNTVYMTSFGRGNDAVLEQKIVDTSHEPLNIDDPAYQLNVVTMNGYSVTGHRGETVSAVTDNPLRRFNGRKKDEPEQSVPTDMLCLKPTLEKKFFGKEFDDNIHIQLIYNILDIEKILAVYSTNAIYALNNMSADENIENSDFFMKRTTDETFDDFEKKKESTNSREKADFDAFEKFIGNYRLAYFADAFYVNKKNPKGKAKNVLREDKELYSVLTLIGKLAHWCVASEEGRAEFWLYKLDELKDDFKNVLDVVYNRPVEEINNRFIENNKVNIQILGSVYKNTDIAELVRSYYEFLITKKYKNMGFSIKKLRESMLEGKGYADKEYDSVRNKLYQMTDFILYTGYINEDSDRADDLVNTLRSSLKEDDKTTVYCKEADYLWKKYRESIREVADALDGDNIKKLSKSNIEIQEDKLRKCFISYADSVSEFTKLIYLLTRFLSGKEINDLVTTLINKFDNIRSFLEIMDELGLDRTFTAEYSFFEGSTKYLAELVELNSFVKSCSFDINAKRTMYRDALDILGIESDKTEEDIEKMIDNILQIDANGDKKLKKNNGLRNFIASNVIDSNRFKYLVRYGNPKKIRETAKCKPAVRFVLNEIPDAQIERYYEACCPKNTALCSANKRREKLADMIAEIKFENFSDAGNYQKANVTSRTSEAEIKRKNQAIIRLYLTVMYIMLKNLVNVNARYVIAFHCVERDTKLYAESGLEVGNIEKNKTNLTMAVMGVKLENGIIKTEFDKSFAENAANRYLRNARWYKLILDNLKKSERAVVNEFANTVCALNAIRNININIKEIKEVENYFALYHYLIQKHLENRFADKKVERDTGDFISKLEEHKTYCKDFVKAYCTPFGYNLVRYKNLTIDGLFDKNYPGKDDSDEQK
Test: crRNA (strand 1, pre-loaded); Mg2+; 40 mM Tris-HCl pH 7.5, 150 mM NaCl, 6 mM MgCl2, 1 mM DTT, 0.1% Tween-20, 0.2 mg/ml BSA; 25 C; 10 min per concentration, then washed
Conditions: tags: His6-TwinStrep-SUMO cleaved; N-terminal SNAP kept (SNAP-Surface 488); label: 3' end held by stalled T7 RNA polymerase

B1: target 1 insA 3' of 22,insG 3' of 3 (mixed)
RNA 1: CACCCGUGCAAAAAUGCAGGGGUCUAAAACUGAGCGGAUAACCUCUCUAUGG
RNA 2: GGGAAUGGAUCCACAUCUACGAAUUCGUACACAUAGAGAGGUUAUCCGCUGCACCGAGAUCGGAAGAGCACACGU
For B1, the Kd was 10.8 ± 0.8 nM.

B2: target 1 insU 3' of 17,insG 3' of 14 (mixed)
RNA 1: CACCCGUGCAAAAAUGCAGGGGUCUAAAACUGAGCGGAUAACCUCUCUAUGG
RNA 2: GGGAAUGGAUCCACAUCUACGAAUUCGUACCAUAGUAGAGGGUUAUCCGCUCACCGAGAUCGGAAGAGCACACGU
Work on B2 yielded a Kd of 23 ± 5 nM.

B3: target 1 insC 3' of 10 (mixed)
RNA 1: CACCCGUGCAAAAAUGCAGGGGUCUAAAACUGAGCGGAUAACCUCUCUAUGG
RNA 2: GGGAAUGGAUCCACAUCUACGAAUUCGUACCAUAGAGAGGUUCAUCCGCUCACCGAGAUCGGAAGAGCACACGU
With B3 the Kd was 15.5 ± 0.9 nM.

B4: target 1 U19G (mixed)
RNA 1: CACCCGUGCAAAAAUGCAGGGGUCUAAAACUGAGCGGAUAACCUCUCUAUGG
RNA 2: GGGAAUGGAUCCACAUCUACGAAUUCGUACCAGAGAGAGGUUAUCCGCUCACCGAGAUCGGAAGAGCACACGU
B4 showed a Kd of 48 ± 5 nM.

B5: target 1 insA 3' of 17,insU 3' of 15 (mixed)
RNA 1: CACCCGUGCAAAAAUGCAGGGGUCUAAAACUGAGCGGAUAACCUCUCUAUGG
RNA 2: GGGAAUGGAUCCACAUCUACGAAUUCGUACCAUAGAAGUAGGUUAUCCGCUCACCGAGAUCGGAAGAGCACACGU
B5 showed a Kd of 12 ± 4 nM.

B6: target 1 insC 3' of 18,insA 3' of 11 (mixed)
RNA 1: CACCCGUGCAAAAAUGCAGGGGUCUAAAACUGAGCGGAUAACCUCUCUAUGG
RNA 2: GGGAAUGGAUCCACAUCUACGAAUUCGUACCAUACGAGAGGUAUAUCCGCUCACCGAGAUCGGAAGAGCACACGU
With B6 the Kd was 74 ± 9 nM.

B7: target 1 A9U,G17U (mixed)
RNA 1: CACCCGUGCAAAAAUGCAGGGGUCUAAAACUGAGCGGAUAACCUCUCUAUGG
RNA 2: GGGAAUGGAUCCACAUCUACGAAUUCGUACCAUAUAGAGGUUUUCCGCUCACCGAGAUCGGAAGAGCACACGU
Binder B7 has a Kd of 30 ± 4 nM.

B8: target 1 insU 3' of 4,insU 3' of 2 (mixed)
RNA 1: CACCCGUGCAAAAAUGCAGGGGUCUAAAACUGAGCGGAUAACCUCUCUAUGG
RNA 2: GGGAAUGGAUCCACAUCUACGAAUUCGUACCAUAGAGAGGUUAUCCGCUUCUACCGAGAUCGGAAGAGCACACGU
B8 gave a Kd of 9.5 ± 0.4 nM.

B9: target 1 A1C,U19G (mixed)
RNA 1: CACCCGUGCAAAAAUGCAGGGGUCUAAAACUGAGCGGAUAACCUCUCUAUGG
RNA 2: GGGAAUGGAUCCACAUCUACGAAUUCGUACCAGAGAGAGGUUAUCCGCUCCCCGAGAUCGGAAGAGCACACGU
B9 was tested, and the Kd was ~80 nM.

B10: target 1 A18G,U19A (mixed)
RNA 1: CACCCGUGCAAAAAUGCAGGGGUCUAAAACUGAGCGGAUAACCUCUCUAUGG
RNA 2: GGGAAUGGAUCCACAUCUACGAAUUCGUACCAAGGAGAGGUUAUCCGCUCACCGAGAUCGGAAGAGCACACGU
Binder B10 has a Kd of 98 ± 25 nM.

B11: target 1 insU 3' of 14,insG 3' of 14 (mixed)
RNA 1: CACCCGUGCAAAAAUGCAGGGGUCUAAAACUGAGCGGAUAACCUCUCUAUGG
RNA 2: GGGAAUGGAUCCACAUCUACGAAUUCGUACCAUAGAGAUGGGUUAUCCGCUCACCGAGAUCGGAAGAGCACACGU
In the case of B11, the Kd is reported as 44 ± 10 nM.

B12: target 1 insG 3' of 16,insA 3' of 7 (mixed)
RNA 1: CACCCGUGCAAAAAUGCAGGGGUCUAAAACUGAGCGGAUAACCUCUCUAUGG
RNA 2: GGGAAUGGAUCCACAUCUACGAAUUCGUACCAUAGAGGAGGUUAUCACGCUCACCGAGAUCGGAAGAGCACACGU
With B12 the Kd was 14.5 ± 0.9 nM.

B13: target 1 G5C,C7A (mixed)
RNA 1: CACCCGUGCAAAAAUGCAGGGGUCUAAAACUGAGCGGAUAACCUCUCUAUGG
RNA 2: GGGAAUGGAUCCACAUCUACGAAUUCGUACCAUAGAGAGGUUAUACCCUCACCGAGAUCGGAAGAGCACACGU
For B13, the Kd was 21.2 ± 1.4 nM.

B14: target 1 insA 3' of 17,insG 3' of 6 (mixed)
RNA 1: CACCCGUGCAAAAAUGCAGGGGUCUAAAACUGAGCGGAUAACCUCUCUAUGG
RNA 2: GGGAAUGGAUCCACAUCUACGAAUUCGUACCAUAGAAGAGGUUAUCCGGCUCACCGAGAUCGGAAGAGCACACGU
For B14, the Kd was 19.4 ± 0.8 nM.

B15: target 1 insG 3' of 8,insC 3' of 8 (mixed)
RNA 1: CACCCGUGCAAAAAUGCAGGGGUCUAAAACUGAGCGGAUAACCUCUCUAUGG
RNA 2: GGGAAUGGAUCCACAUCUACGAAUUCGUACCAUAGAGAGGUUAUGCCCGCUCACCGAGAUCGGAAGAGCACACGU
Work on B15 yielded a Kd of 12.9 ± 0.5 nM.

B16: target 1 insC 3' of 5,insG 3' of 1 (mixed)
RNA 1: CACCCGUGCAAAAAUGCAGGGGUCUAAAACUGAGCGGAUAACCUCUCUAUGG
RNA 2: GGGAAUGGAUCCACAUCUACGAAUUCGUACCAUAGAGAGGUUAUCCGCCUCAGCCGAGAUCGGAAGAGCACACGU
Work on B16 yielded a Kd of 8.4 ± 0.6 nM.

B17: target 1 C7G,C22U (mixed)
RNA 1: CACCCGUGCAAAAAUGCAGGGGUCUAAAACUGAGCGGAUAACCUCUCUAUGG
RNA 2: GGGAAUGGAUCCACAUCUACGAAUUCGUAUCAUAGAGAGGUUAUGCGCUCACCGAGAUCGGAAGAGCACACGU
With B17 the Kd was 13.7 ± 0.7 nM.

B18: target 1 U8A,A9G (mixed)
RNA 1: CACCCGUGCAAAAAUGCAGGGGUCUAAAACUGAGCGGAUAACCUCUCUAUGG
RNA 2: GGGAAUGGAUCCACAUCUACGAAUUCGUACCAUAGAGAGGUUGACCGCUCACCGAGAUCGGAAGAGCACACGU
For B18, the Kd was 19.3 ± 1 nM.

B19: target 1 C2A,C7U (mixed)
RNA 1: CACCCGUGCAAAAAUGCAGGGGUCUAAAACUGAGCGGAUAACCUCUCUAUGG
RNA 2: GGGAAUGGAUCCACAUCUACGAAUUCGUACCAUAGAGAGGUUAUUCGCUAACCGAGAUCGGAAGAGCACACGU
B19 gave a Kd of 5.2 ± 0.4 nM.

B20: target 1 C6U,G15A (mixed)
RNA 1: CACCCGUGCAAAAAUGCAGGGGUCUAAAACUGAGCGGAUAACCUCUCUAUGG
RNA 2: GGGAAUGGAUCCACAUCUACGAAUUCGUACCAUAGAAAGGUUAUCUGCUCACCGAGAUCGGAAGAGCACACGU
Work on B20 yielded a Kd of 11.9 ± 0.5 nM.

B21: target 1 insC 3' of 5,insU 3' of 1 (mixed)
RNA 1: CACCCGUGCAAAAAUGCAGGGGUCUAAAACUGAGCGGAUAACCUCUCUAUGG
RNA 2: GGGAAUGGAUCCACAUCUACGAAUUCGUACCAUAGAGAGGUUAUCCGCCUCAUCCGAGAUCGGAAGAGCACACGU
In the case of B21, the Kd is reported as 9.61 ± 0.26 nM.

B22: target 1 A1G,C2A (mixed)
RNA 1: CACCCGUGCAAAAAUGCAGGGGUCUAAAACUGAGCGGAUAACCUCUCUAUGG
RNA 2: GGGAAUGGAUCCACAUCUACGAAUUCGUACCAUAGAGAGGUUAUCCGCUAGCCGAGAUCGGAAGAGCACACGU
B22 was tested, and the Kd was 5.2 ± 0.32 nM.

B23: target 1 insA 3' of 13,insG 3' of 4 (mixed)
RNA 1: CACCCGUGCAAAAAUGCAGGGGUCUAAAACUGAGCGGAUAACCUCUCUAUGG
RNA 2: GGGAAUGGAUCCACAUCUACGAAUUCGUACCAUAGAGAGAGUUAUCCGCGUCACCGAGAUCGGAAGAGCACACGU
Work on B23 yielded a Kd of 3.04 ± 0.19 nM.

B24: target 1 insC 3' of 12,insC 3' of 5 (mixed)
RNA 1: CACCCGUGCAAAAAUGCAGGGGUCUAAAACUGAGCGGAUAACCUCUCUAUGG
RNA 2: GGGAAUGGAUCCACAUCUACGAAUUCGUACCAUAGAGAGGCUUAUCCGCCUCACCGAGAUCGGAAGAGCACACGU
With B24 the Kd was 13.4 ± 0.7 nM.

B25: target 1 C4A,U10A (mixed)
RNA 1: CACCCGUGCAAAAAUGCAGGGGUCUAAAACUGAGCGGAUAACCUCUCUAUGG
RNA 2: GGGAAUGGAUCCACAUCUACGAAUUCGUACCAUAGAGAGGUAAUCCGAUCACCGAGAUCGGAAGAGCACACGU
With B25 the Kd was 5.3 ± 0.4 nM.

B26: target 1 insC 3' of 20,insU 3' of 15 (mixed)
RNA 1: CACCCGUGCAAAAAUGCAGGGGUCUAAAACUGAGCGGAUAACCUCUCUAUGG
RNA 2: GGGAAUGGAUCCACAUCUACGAAUUCGUACCACUAGAGUAGGUUAUCCGCUCACCGAGAUCGGAAGAGCACACGU
In the case of B26, the Kd is reported as 10 ± 0.7 nM.

B27: target 1 insC 3' of 20,insG 3' of 9 (mixed)
RNA 1: CACCCGUGCAAAAAUGCAGGGGUCUAAAACUGAGCGGAUAACCUCUCUAUGG
RNA 2: GGGAAUGGAUCCACAUCUACGAAUUCGUACCACUAGAGAGGUUAGUCCGCUCACCGAGAUCGGAAGAGCACACGU
Work on B27 yielded a Kd of 10.2 ± 0.8 nM.

B28: target 1 insC 3' of 5,insC 3' of 1 (mixed)
RNA 1: CACCCGUGCAAAAAUGCAGGGGUCUAAAACUGAGCGGAUAACCUCUCUAUGG
RNA 2: GGGAAUGGAUCCACAUCUACGAAUUCGUACCAUAGAGAGGUUAUCCGCCUCACCCGAGAUCGGAAGAGCACACGU
B28 showed a Kd of 19.6 ± 3.4 nM.
